“And” between values parts separate entries of the source, which are not always exact repeats. Equal values may be shown once.
Legend:
[1] = target: BLM RecQ-core (core-BLM) (human) (UniProt P54132); assay: smFRET (GQ unfolding); settings: smFRET: 150 mM K+ (or 50 mM K+, 50/150 mM Na+), 5 mM Mg2+, pH 7.5, EMSA: 50 mM K+, 50 mM Tris-HCl pH 7.5, 1 mM DTT, 22 C; for binding signal (% unfolded at 25 nM): 50 mM Na+; for binding signal: 150 mM K+, saturating BLM
WRN (human) = WRN (human) (UniProt Q14191); assay: smFRET (GQ unfolding); settings: 50 mM Na+, strand 2 is RNA, smFRET: 150 mM K+ (or 50 mM K+, 50/150 mM Na+), 5 mM Mg2+, pH 7.5, EMSA: 50 mM K+, 50 mM Tris-HCl pH 7.5, 1 mM DTT, 22 C
WRN (human), sequence (Q14191 whole entry): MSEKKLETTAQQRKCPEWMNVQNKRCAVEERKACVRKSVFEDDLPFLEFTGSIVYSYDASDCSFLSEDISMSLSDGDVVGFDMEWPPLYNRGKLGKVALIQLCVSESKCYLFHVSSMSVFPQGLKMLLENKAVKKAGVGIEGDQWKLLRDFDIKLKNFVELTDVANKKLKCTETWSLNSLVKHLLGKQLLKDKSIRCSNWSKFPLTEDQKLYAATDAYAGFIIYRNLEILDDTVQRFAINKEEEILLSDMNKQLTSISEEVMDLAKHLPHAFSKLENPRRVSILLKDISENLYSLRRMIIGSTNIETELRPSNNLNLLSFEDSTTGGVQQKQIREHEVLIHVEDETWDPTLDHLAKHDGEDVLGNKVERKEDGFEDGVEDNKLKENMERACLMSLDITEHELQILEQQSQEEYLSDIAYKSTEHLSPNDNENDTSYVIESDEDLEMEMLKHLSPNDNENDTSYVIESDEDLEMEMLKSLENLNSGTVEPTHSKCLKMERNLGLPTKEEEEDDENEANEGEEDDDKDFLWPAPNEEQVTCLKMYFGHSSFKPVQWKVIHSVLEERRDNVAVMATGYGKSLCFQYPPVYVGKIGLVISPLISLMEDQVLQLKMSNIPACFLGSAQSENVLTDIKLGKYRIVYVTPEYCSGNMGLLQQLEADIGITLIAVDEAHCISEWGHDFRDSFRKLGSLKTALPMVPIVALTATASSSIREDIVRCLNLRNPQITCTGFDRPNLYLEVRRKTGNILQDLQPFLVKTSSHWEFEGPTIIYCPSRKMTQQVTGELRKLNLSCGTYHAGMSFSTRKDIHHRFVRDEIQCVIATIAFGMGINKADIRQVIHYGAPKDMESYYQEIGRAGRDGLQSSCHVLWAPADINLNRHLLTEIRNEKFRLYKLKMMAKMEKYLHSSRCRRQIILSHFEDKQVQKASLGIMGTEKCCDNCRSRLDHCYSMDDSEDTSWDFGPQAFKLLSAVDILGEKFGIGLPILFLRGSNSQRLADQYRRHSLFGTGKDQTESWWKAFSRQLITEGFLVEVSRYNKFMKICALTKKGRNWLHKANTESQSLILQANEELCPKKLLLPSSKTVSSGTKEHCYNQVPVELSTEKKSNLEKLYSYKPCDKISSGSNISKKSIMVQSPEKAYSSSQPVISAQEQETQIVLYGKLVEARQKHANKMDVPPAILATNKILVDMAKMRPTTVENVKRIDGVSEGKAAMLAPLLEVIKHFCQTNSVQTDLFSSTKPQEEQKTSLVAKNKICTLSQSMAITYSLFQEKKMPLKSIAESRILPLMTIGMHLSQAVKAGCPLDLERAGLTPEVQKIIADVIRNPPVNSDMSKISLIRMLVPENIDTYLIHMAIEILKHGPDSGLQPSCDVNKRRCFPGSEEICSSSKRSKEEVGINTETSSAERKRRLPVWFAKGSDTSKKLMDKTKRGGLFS

[2] = target: BLM RecQ-core (core-BLM) (human) (UniProt P54132); assay: smFRET (GQ unfolding titration, Langmuir); settings: strand 2 is RNA, smFRET: 150 mM K+ (or 50 mM K+, 50/150 mM Na+), 5 mM Mg2+, pH 7.5, EMSA: 50 mM K+, 50 mM Tris-HCl pH 7.5, 1 mM DTT, 22 C
[3] = target: BLM RecQ-core (core-BLM) (human) (UniProt P54132); assay: smFRET; settings: strand 2 is RNA, smFRET: 150 mM K+ (or 50 mM K+, 50/150 mM Na+), 5 mM Mg2+, pH 7.5, EMSA: 50 mM K+, 50 mM Tris-HCl pH 7.5, 1 mM DTT, 22 C
[4] = target: BLM RecQ-core (core-BLM) (human) (UniProt P54132); assay: smFRET; settings: smFRET: 150 mM K+ (or 50 mM K+, 50/150 mM Na+), 5 mM Mg2+, pH 7.5, EMSA: 50 mM K+, 50 mM Tris-HCl pH 7.5, 1 mM DTT, 22 C
[5] = nt-free, 150 mM Na+, strand 2 is RNA

BLM RecQ-core (core-BLM) (human), sequence (P54132 642-1290): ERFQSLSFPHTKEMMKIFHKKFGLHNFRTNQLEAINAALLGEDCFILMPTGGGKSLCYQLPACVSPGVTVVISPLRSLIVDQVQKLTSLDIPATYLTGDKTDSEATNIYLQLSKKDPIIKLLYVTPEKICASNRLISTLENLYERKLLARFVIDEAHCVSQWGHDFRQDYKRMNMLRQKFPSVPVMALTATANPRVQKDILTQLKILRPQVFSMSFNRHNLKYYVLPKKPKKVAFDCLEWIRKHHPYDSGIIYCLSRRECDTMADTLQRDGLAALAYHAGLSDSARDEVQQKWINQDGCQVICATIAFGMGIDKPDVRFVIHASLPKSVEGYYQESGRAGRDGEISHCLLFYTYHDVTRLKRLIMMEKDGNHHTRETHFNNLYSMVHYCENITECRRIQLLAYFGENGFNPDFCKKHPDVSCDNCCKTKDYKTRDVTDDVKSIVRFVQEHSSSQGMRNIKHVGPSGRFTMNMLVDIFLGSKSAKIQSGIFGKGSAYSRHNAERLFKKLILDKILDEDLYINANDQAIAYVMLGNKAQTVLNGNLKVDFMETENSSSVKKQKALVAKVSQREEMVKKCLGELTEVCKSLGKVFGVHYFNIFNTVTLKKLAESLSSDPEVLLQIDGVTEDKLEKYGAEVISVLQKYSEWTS

Question: Which results are given for “TGGCGACGGCAGCGAGGCTAGGGTTAGGGTTAGGGTTAGGGTTTTTTTTTTTT / GCCUCGCUGCCGUCGCCA [pd-hGQ12T]”?
Answer: binding signal (% unfolded at 25 nM) ([1]; ATPgS, strand 2 is RNA): 25; binding signal (% unfolded at 25 nM) ([1]; nt-free, strand 2 is RNA): 18; binding signal (% unfolded at 300 nM) [1, 5]: 17; binding signal (% unfolded at 1000 nM) [1, 5]: 38; binding signal (% unfolded at 25 nM) (WRN (human); ATPgS): 25; binding signal (% unfolded at 25 nM) (WRN (human); nt-free): 8; K half ([2]; 1 mM ADP, 150 mM K+, alpha 32%): 55 nM; K half ([2]; 1 mM ATPgS, 150 mM K+, alpha 53%): 108 nM; K half ([2]; nt-free, 50 mM K+, alpha 55%): 28 nM; K half ([2]; nt-free, 150 mM K+, alpha 49%): 305 nM

Question: With “TGGCGACGGCAGCGAGGCTAGGGTTAGGGTTAGGGTTAGGGTTTTTTTTTTTTTTT / GCCUCGCUGCCGUCGCCA [pd-hGQ15T]” as the sequence, how does the binding signal ([1]; ADP, strand 2 is RNA) read?
Answer: Its binding signal is 22 % unfolded.

Question: And the binding signal ([1]; ATPgS, strand 2 is RNA)?
Answer: The binding signal was 57 % unfolded.

Question: What about the binding signal ([1]; nt-free, strand 2 is RNA) of the same sequence?
Answer: The binding signal was 48 % unfolded.

Question: With “TGGCGACGGCAGCGAGGCTTGGGTGGGTGGGTGGGTTTTTTTTTTTT / GCCUCGCUGCCGUCGCCA [pd-3Ly1Lp12T]” as the sequence, how does the binding signal (% unfolded at 1 uM) ([1]; strand 2 is RNA) read?
Answer: The binding signal (% unfolded at 1 uM) was 46 and 58.

Question: For “TGGCGACGGCAGCGAGGCTTTTTTTTTTTTTTT / GCCUCGCUGCCGUCGCCA [pd-polyT15]”, which binding signal (% bound at 1 uM) [3] is on record?
Answer: The binding signal (% bound at 1 uM) was 36.

Question: And the binding signal (% bound at 1 uM) ([4]; 1 mM ADP, 150 mM K+, strand 2 is RNA)?
Answer: The binding signal (% bound at 1 uM) was 12.

Question: And the binding signal (fold higher Keq in 150 vs 50 mM Na+) ([4]; nt-free, strand 2 is RNA)?
Answer: The binding signal (fold higher Keq in 150 vs 50 mM Na+) was 4.7.

Question: What about the binding signal (% bound at 1 uM) ([4]; strand 2 is RNA) of the same sequence?
Answer: The binding signal (% bound at 1 uM) was 21.

Question: How did the binding signal (% unfolded at 1 uM) ([1]; ATPgS, 50 mM K+) turn out when “TTTTTTTTTTTTGGGTTAGGGTTAGGGTTAGGGTTTGGCGACGGCAGCGAGGC / GCCTCGCTGCCGTCGCCA [pd-hGQ12T-5']” was run?
Answer: Its binding signal (% unfolded at 1 uM) is 30.

Question: What about the binding signal (% unfolded at 1 uM) ([1]; nt-free, 50 mM K+) of the same sequence?
Answer: Its binding signal (% unfolded at 1 uM) is 21.

Question: With “TTTTTTTTTTTTTTTTGGCGACGGCAGCGAGGC / GCCTCGCTGCCGTCGCCA [pd-polyT15-5']” as the sequence, how does the binding signal (% bound at 1 uM) ([4]; 1 mM ATPgS, 50 mM K+) read?
Answer: Its binding signal (% bound at 1 uM) is 53.

Reference: publication PMC4191421
